For one assay, the target named is T1, LepB Δ2-76 (Escherichia coli, UniProt P00803).
T1 construct: made in house; host or cells: E. coli BL21(DE3)
Description: biochemical. The protocol:
The cleavage of the fluorescent peptide, Dabcyl-[…]-Edans, by LepB leads to an increase in relative fluorescence over time. If the ability of LepB to cleave this peptide is inhibited, the increase in relative fluorescence per second should decrease in a concentration-dependent manner.
A reaction in a 100-μL reaction mixture in phosphate-buffered saline (PBS) (pH 7.4) containing 0.1% Triton X-100 was initiated by adding 450 nM LepB Δ2-76 to a black, clear-bottom 96-well plate (Corning, Corning, NY, USA). In triplicate, wells contained a 2-fold serial dilution of the peptide being tested from 0.5 mg/mL and 10 μM fluorescent peptide, Dabcyl-[…]-Edans (Mimotopes, Mulgrave, VIC, Australia). While the peptide containing the two fluorophores is intact, the Edans emission is quenched by Dabcyl through FRET. However, once the peptide is cleaved by LepB, the fluorophores are no longer in close enough proximity for the transfer of energy and the fluorescence emission of Edans is recorded. The cleavage of the fluorescent peptide by LepB was recorded using an excitation wavelength of 340 nm and an emission wavelength of 490 nm recorded every 2 min for 30 min in a Tecan Infinite 200 Pro plate reader. Data were analyzed using the formula [(RFU2 − RFU1)/(time2 − time1)] = RFU/s on the linear portion of the reaction (where RFU stands for relative fluorescent units), and the absolute IC50 was determined using the simple linear regression analysis on Prism 9.

The target of assay [1] is T2, LepB Δ2-76 His-SUMO (Escherichia coli signal peptidase I) (Escherichia coli, UniProt P00803).
T2 construct: purchased Sapphire Bioscience
Description: biochemical. The format is binding. An excerpt: Surface plasmon resonance (SPR) analysis on a Pioneer FE system (Sartorius, Göttingen, Germany) was used to determine the on- and off-rates of custom peptides (Mimotopes, Mulgrave, VIC, Australia) with purchased LepB (Sapphire Bioscience, Redfern, NSW, Australia) ([9]). Briefly, LepB Δ2-76 His-SUMO was immobilized onto a CDH chip (Sartorius, Göttingen, Germany) onto flow cells 1 and 3 by an amine coupling reaction using 0.2 M 1-ethyl-3-[(3-dimethylamino)propyl]-carbodiimide (EDC) and 0.05 M N-hydroxysuccinimide (NHS). The EDC-NHS mix was caused to flow over at 15 μL/min for 100 s, LepB was injected at 10 μL/min for 10 min, and then ethanolamine was caused to flow over at 10 μL/min for 10 min. Flow cell 2 was used as a reference cell, and no LepB was injected over this cell. The assay was performed using a OneStep assay method with 75% of the loop. Peptides were caused to flow over the flow cells at a concentration of 50 μM at a flow rate of 50 μL/min with a dissociation period of 180 s. A regeneration cycle at a flow rate of 50 μL/min for 3 min with Tris-EDTA (TE) was completed after every cycle. Data were collected in triplicate, and analysis was completed with the Qdat analysis software (Sartorius, Göttingen, Germany; see Fig. S1 in the supplemental material).

Assay [2] deals with Staphylococcus aureus USA300. The format is cell-based. To be noted: strain USA300, rich medium, subinhibitory DMSO (5%), overnight 37°C. As to the method:
(§1) The resistance to the peptides was determined using MIC methods as previously described ([31]). Briefly, 5 × 10^5 cells were added to a 96-well plate which contained a peptide 2-fold serially diluted in either M9 minimal medium containing 5% DMSO and 0.2% glucose or Mueller-Hinton medium containing 5% DMSO. Plates were incubated overnight at 37°C, and the MIC result was scored as the last set of wells that contained no growth of bacteria. Bacteria tested were E. coli MG1655 containing an empty pBAD plasmid, E. coli BL21(DE3) containing an empty pET15b plasmid, S. aureus FDA209, and S. aureus USA300. Peptides 08 and 10 were tested from 0.5 mg/mL, and peptide 11 was tested from 1 mg/mL.

The test system of assay [3] is Staphylococcus aureus FDA209. It counts as cell-based. To be noted: strain FDA209, rich medium, subinhibitory DMSO (5%), overnight 37°C. The protocol:
as §1

Assay [4] concerns E. coli MG1655 (empty pBAD) and E. coli BL21(DE3) (empty pET15b). Description: MIC assay against E. coli. The format is cell-based, Escherichia coli. Conditions: rich (Mueller-Hinton) and M9 minimal media, with or without subinhibitory DMSO (5%); overnight 37°C; peptides 08 and 10 from 0.5 mg/mL, 11 from 1 mg/mL. The protocol:
as §1

The target of assay [5] is LepB Δ2-76 His-SUMO (Escherichia coli) (UniProt P00803). Description: SPR; LepB Δ2-76 His-SUMO amine-coupled (EDC/NHS) to a CDH chip, Pioneer FE; OneStep method with 75% of the loop; peptides flowed at 50 μM, 50 μL/min, 180 s dissociation; regeneration with Tris-EDTA; triplicate. On the technique in general: In SPR one partner is held on a chip, and binding of the other changes the refractive index at the surface.

The target of assay [6] is LepB Δ2-76 (Escherichia coli (strain DH5α)) (UniProt P00803).

Experimental findings from publication PMC10269814, “New Perspectives on Escherichia coli Signal Peptidase I Substrate Specificity: Investigating Why the TasA Cleavage Site Is Incompatible with LepB Cleavage” (Microbiology Spectrum, 2023) are described below.

Values after ≈ are worked out from the molar mass of the structure shown. Values joined by “and” are separate entries in the source; they are usually repeats but may differ in a detail not shown here. Identical values can stand only once. Ends that are not written are not given here. Peptide text beside a SMILES is read from it.

For VGGGTWAAIEEGKL [Peptide 04], on LepB Δ2-76, the IC50 – broadly, the concentration that inhibits the measured activity by half – was 1680 µM. Also, binding in assay [1] was put at a Kd of 8.83 ± 2.59 µM.
At LepB Δ2-76, GGTWAAFNDV [Peptide 03] showed an IC50 of 1160 µM. Moreover, the Kd (usually the concentration at which binding is half-saturated) in assay [1] stood at 8.71 ± 2.14 µM.
For the molecule `C[C@H](N)C(=O)N[C@@H](C)C(=O)N[C@@H](Cc1ccccc1)C(=O)N[C@@H](CCC(=O)O)C(=O)O` [Peptide 11] (H-AAFE-OH), the MIC in assay [2] and in assay [3] was 1000 µg/mL (≈ 2290 µM) in each case. Besides, on LepB Δ2-76, inhibition was half-maximal at 3790 µM (IC50). In assay [1], this molecule displayed a Kd of 18.5 ± 0.62 µM.
At LepB Δ2-76, TWAAFN [Peptide 07] gave a 50% inhibitory concentration (IC50) of 1970 µM. Also, in assay [1], the affinity, expressed as Kd, was 5.38 ± 0.2 µM.
Molecule GGGTWAAIE [Peptide 06] had an IC50 against LepB Δ2-76 of 4520 µM. Binding in assay [1] was put at a Kd of 17.3 ± 0.2 µM.
VGGGTWAAFETL [Peptide 02] gave an IC50 against LepB Δ2-76 of 1010 µM. In assay [1], this molecule displayed a Kd of 12.8 ± 2.55 µM.
Regarding TWAAIE [Peptide 08], the IC50 at LepB Δ2-76 was 647 µM. In assay [1], this molecule returned a Kd of 0.7 ± 0.35 µM.
GGGTWAAFEEGK [Peptide 01] gave an IC50 on LepB Δ2-76 of 1600 µM. The same molecule came in with a Kd in assay [1] of 10.3 µM.
Take GGTWAAIE [Peptide 10]: the MIC (commonly the lowest concentration found to suppress growth) in assay [4] was “No MIC was observed”. Moreover, the Kd off-rate in assay [1] (SPR OneStep, LepB amine-coupled to CDH chip, peptide 50 μM, dissociation 180 s, mean ± standard error, triplicate) was 0.00421 s⁻¹ and 0.00421 ± 0.00049 s⁻¹. The molecule also gave a Ka on-rate in assay [1] (SPR OneStep, Pioneer FE, LepB amine-coupled to CDH chip, peptide 50 μM, flow 50 μL/min, mean ± standard error, triplicate) of 4770 ± 590 M⁻¹ s⁻¹.
In turn, GGTWAAFE [Peptide 05] had a concentration for half-maximal inhibition (IC50) against LepB Δ2-76 of 967 µM.
For the molecule GGTWAAFNDV [peptide 03], in assay [5], the koff (as a rule, the first-order rate constant of dissociation) was determined as 0.947 s⁻¹ and the kon (as a rule, the second-order rate constant of association) was determined as 146000 M⁻¹ s⁻¹. This molecule also came in with an IC50 of LepB cleavage of the fluorescent peptide Dabcyl-DAPPAKAA-Edans (FRET enzyme assay) in assay [6] of 1210 µg/mL.
GGTWAAFE [peptide 05]: the IC50 of LepB cleavage of the fluorescent peptide Dabcyl-DAPPAKAA-Edans (FRET enzyme assay) in assay [6] is 810 µg/mL.
In assay [5], GGGTWAAFEEGK [peptide 01] came in with a koff of 0.0434 s⁻¹ and a kon of 4440 M⁻¹ s⁻¹. The molecule also returned an IC50 of LepB cleavage of the fluorescent peptide Dabcyl-DAPPAKAA-Edans (FRET enzyme assay) in assay [6] of 1930 µg/mL.
For the molecule GGGTWAAIE [peptide 06], in assay [5], the off-rate (koff) came to 0.0208 s⁻¹ and the kon turned out to be 1200 M⁻¹ s⁻¹. Further, the IC50 of LepB cleavage of the fluorescent peptide Dabcyl-DAPPAKAA-Edans (FRET enzyme assay) in assay [6] amounted to 3890 µg/mL.
In assay [5], AAFE [peptide 11] gave a koff of 0.442 s⁻¹ and an on-rate (kon) of 15900 M⁻¹ s⁻¹. The same molecule had an IC50 of LepB cleavage of the fluorescent peptide Dabcyl-DAPPAKAA-Edans (FRET enzyme assay) in assay [6] of 1660 µg/mL.
In the same order, the values of TWAAFN [peptide 07] are 0.321 s⁻¹, 60400 M⁻¹ s⁻¹ and 1390 µg/mL.
Regarding VGGGTWAAFETL [peptide 02], in assay [5], the koff amounted to 0.0147 s⁻¹ and the kon is 1140 M⁻¹ s⁻¹. In assay [6], the IC50 of LepB cleavage of the fluorescent peptide Dabcyl-DAPPAKAA-Edans (FRET enzyme assay) came to 1220 µg/mL.
With VGGGTWAAIEEGKL [peptide 04], in assay [5], the koff was determined as 0.17 s⁻¹ and the kon worked out at 26400 M⁻¹ s⁻¹. In assay [6], this molecule had an IC50 of LepB cleavage of the fluorescent peptide Dabcyl-DAPPAKAA-Edans (FRET enzyme assay) of 2340 µg/mL.
In assay [5], TWAAIE [peptide 08] registered a koff of 0.00239 s⁻¹ and a kon of 2500 M⁻¹ s⁻¹. In assay [6], this molecule came in with an IC50 of LepB cleavage of the fluorescent peptide Dabcyl-DAPPAKAA-Edans (FRET enzyme assay) of 446 µg/mL.
